{"source": "paper PMC5612608", "about": "(Contrast Media & Molecular Imaging, 2017)", "key": {"in vivo [1]": {"test": "in vivo", "details": "male, NOD-SCID, mouse, iv, 16.8 pmol, total radioactivity", "experimental": "(§1) The animal experiments were planned and performed in accordance with the national legislation on the protection of laboratory animals, and the study plans were approved by the local committee for animal research ethics. Groups of 3-4 mice were used per data point. Biodistribution studies were performed on female immunocompetent NMRI mice (weight: 30 ± 2 g), female Balb/c nu/nu (inoculated 10 million PC-3 cells/mouse 21 days before the experiment, weight 17 ± 2 g), and male inbred immunodeficient NOD-SCID mice (5 million PC-3 cells/mouse, 35 days before the experiment, 31 ± 2 g).\n(§2) Tumor targeting specificity and biodistribution over time were studied on PC-3 xenografted female Balb/c nu/nu and male NOD-SCID mice, respectively. […] An additional group of animals was coinjected with an excess of nonlabeled peptide (20 nmol). The mice were sacrificed at 3 h pi by intraperitoneal injection of Ketalar-Rompun solution (10 mg/mL Ketalar and 1 mg/mL Rompun; 20 μL/g body weight). […] The mice were euthanized at 3 and 24 h pi by cervical dislocation. Tumors, blood, and other organs of interest were collected, weighed, and measured on radioactivity content in a gamma-counter. […] The organ uptake values were expressed as a percentage of injected dose per gram of tissue (% ID/g), except for the gastrointestinal tract and the remaining carcass, which were calculated as % ID per whole sample."}, "murine GRPRs": {"system": "murine GRPRs", "test": "in vivo", "parameters": "species or system mouse", "details": "female NMRI mice, 30 min pi, 45 pmol, coinjected 20 nmol unlabeled peptide", "experimental": "(§3) The animal experiments were planned and performed in accordance with the national legislation on the protection of laboratory animals, and the study plans were approved by the local committee for animal research ethics. Groups of 3-4 mice were used per data point. Biodistribution studies were performed on female immunocompetent NMRI mice (weight: 30 ± 2 g), female Balb/c nu/nu (inoculated 10 million PC-3 cells/mouse 21 days before the experiment, weight 17 ± 2 g), and male inbred immunodeficient NOD-SCID mice (5 million PC-3 cells/mouse, 35 days before the experiment, 31 ± 2 g). […] The injected radioactivity was adjusted to 30 kBq per animal. […] The mice were euthanized at 30 min pi by intraperitoneal injection of Ketalar-Rompun solution (10 mg/mL Ketalar and 1 mg/mL Rompun; 20 μL/g body weight). Blood samples were collected by cardiac puncture. Lung, liver, spleen, pancreas, stomach, small intestines, kidneys, muscle, bone, and the rest of intestines with their content were collected. The organs were weighed and their radioactivity content was measured in a gamma-counter. The data were corrected for background radiation. The organ uptake values were expressed as a percentage of injected dose per gram of tissue (% ID/g), except for the gastrointestinal tract and the remaining carcass, which were calculated as % ID per whole sample."}, "in vivo [2]": {"test": "in vivo", "parameters": "species or system mouse", "details": "female, NMRI, mouse, in vivo, iv, 45 pmol, total radioactivity", "experimental": "as §3"}, "PC-3 xenografts": {"system": "PC-3 xenografts", "test": "In vivo binding specificity in PC-3 xenografted Balb/c nu/nu mice", "parameters": "species or system mouse", "details": "female Balb/c nu/nu mice with subcutaneous PC-3 tumors, 3 h pi, 45 pmol, coinjected 20 nmol", "experimental": "as §1, §2"}, "PC-3 cells": {"system": "PC-3 cells", "test": "Cellular processing (binding and internalization, acid wash) by PC-3 cells", "assay_type": "cell-based, human", "details": "1 nM, 37°C, 24 h incubation, 3 dishes", "experimental": "The cells were cultured in RPMI-1640 media supplemented with 10% fetal calf serum, PEST (penicillin 100 IU/mL, streptomycin 100 μg/mL), and 2 mM L-glutamine (all from Biochrom AG, Berlin, Germany). This medium is referred to as complete medium in the text. Trypsin-EDTA (0.05% trypsin, 0.02% EDTA in buffer; Biochrom AG) was used for cell detachment. All in vitro experiments were performed in triplicate. […] At predetermined time points (1, 2, 4, 8, and 24 h after the start of incubation) the medium from 3 dishes was discarded and the cells were washed with ice-cold serum-free medium. The membrane-bound and internalized radioactivity were collected using the acid wash method described earlier."}, "[3]": {"test": "Labeling stability: EDTA challenge and PBS, analysed by ITLC", "assay_type": "physicochemical", "details": "chemical (label) stability, ITLC eluted with citric acid 0.2 M pH 2.0, average ± SD", "experimental": "Radiolabeling with ^57Co was performed using 3.8–10 nmol (aq. 1 nmol/μL) of NOTA-PEG2-RM26 buffered with 80 μL ammonium acetate (0.2 M, pH 5.5). The mixture was incubated with ^57Co cobalt chloride (10–50 MBq) for 30 min at 60°C. For ^55Co labeling, 1.3 nmol of NOTA-PEG2-RM26 buffered with 80 μL ammonium acetate (0.2 M, pH 5.5) was heated by microwave irradiation for 1 min at 850 W in a sealed vial using a conventional microwave oven (Samsung MW82N-B). […] Labeling yield, radiochemical purity, and in vitro stability were analyzed using instant thin-layer chromatography (ITLC) strips (Agilent Technologies) eluted with citric acid (0.2 M, pH 2.0). In this system, free ^57/55Co migrates with the eluent front (Rf = 1.0) and the radiolabeled construct stays on the application point (Rf = 0.0). The system was previously validated by sodium dodecyl sulfate polyacrylamide gel electrophoresis (SDS-PAGE) and radio-HPLC [7, 8]."}}}
{"smiles": "CC(C)C[C@H](NC(=O)C[C@H](O)[C@H](CC(C)C)NC(=O)[C@H](Cc1c[nH]cn1)NC(=O)CNC(=O)[C@@H](NC(=O)[C@H](C)NC(=O)[C@H](Cc1c[nH]c2ccccc12)NC(=O)[C@H](CCC(N)=O)NC(=O)[C@@H](Cc1ccccc1)NC(=O)COCCOCCNC(=O)CN1CCN(CC(=O)O)CCN(CC(=O)O)CC1)C(C)C)C(N)=O", "note": "[^57Co-NOTA-PEG2-RM26]", "values": [{"measurement": "tissue uptake at 3 h", "setting": "in vivo [1]", "value": "0.05 ± 0.02", "unit": "%ID/g"}, {"measurement": "Accumulated radioactivity in receptor-positive organs (pancreas, small intestine, stomach) on coinjection of unlabeled peptide", "setting": "murine GRPRs", "value": "significantly lower"}, {"measurement": "tissue uptake at 0.5 h", "setting": "in vivo [2]; kidney retention", "value": "6 ± 2", "unit": "%ID/g"}, {"measurement": "tissue uptake at 0.5 h", "setting": "in vivo [2]; liver uptake", "value": "0.65 ± 0.05", "unit": "%ID/g"}, {"measurement": "Tumor uptake and uptake in GRPR-expressing organs on coinjection of excess unlabeled peptide", "setting": "PC-3 xenografts", "value": "inhibited"}, {"measurement": "Internalized fraction of cell-associated radioactivity", "setting": "PC-3 cells", "value": 12, "unit": "%"}, {"measurement": "Release in the presence of excess EDTA", "setting": "[3]; 1000-fold molar excess of EDTA disodium salt, 1 h, room temperature", "value": "0.7 ± 0.2", "unit": "%"}, {"measurement": "Release in PBS", "setting": "[3]; PBS, 1 h incubation at room temperature", "value": "0.07 ± 0.11", "unit": "%"}]}
